According to the Human Domainome abundance scans (Beltran et al. 2025):

B1: Peripheral plasma membrane protein CASK, residues 488 to 569; numbered along this chain, O14936 (parent)
chain: VRLVQFQKNTDEPMGITLKMNELNHCIVARIMHGGMIHRQGTLHVGDEIREINGISVANQTVEQLQKMLREMRGSITFKIVP
B2: Far upstream element-binding protein 1, residues 184 to 257; numbered along this chain, Q96AE4 (parent)
chain: GNAVQEIMIPASKAGLVIGKGGETIKQLQERAGVKMVMIQDGPQNTGADKPLRITGDPYKVQQAKEMVLELIRD

Variants of: B1
Assay: abundance fitness (aPCA) (normalised: wild type 0, dead -1); higher = more abundant; growth selection in yeast, the domain comes from the species named
Conditions: Homo sapiens

Abundance fitness: each site, then its substitutions
R50: Q -0.018
H33: C -0.033
V62: S 0.003
E48: K -0.19
M68: G -0.048
V81: E -0.104
L43: D -1.04
T17: M -0.046
N24: C -0.159
M14: L 0.001
K67: E 0.009
V1: M 0.099
T77: L -0.064

Variants of: B2
Assay: as above
Conditions: Homo sapiens

Abundance fitness, by site and new letter:
I18: K -0.117; Y -0.106; V -0.018; G -0.148; P -0.292; L 0.008; R -0.104; Q -0.058; S -0.09; C -0.12; T 0.011; D -0.152; A 0.038; H -0.009; M -0.065; E -0.028
M8: S -0.121; Y -0.133; T -0.106; R -0.074; D -0.23; N -0.078; A -0.124; V -0.323; G -0.151; W -0.164; H -0.102; L -0.075; E -0.166; P -0.094; Q -0.03; I -0.011; C -0.339
V4: P -0.56; K 0.027; F 0.112; H 0.031; R -0.053; Y -0.013; Q 0.009; C -0.069; T 0.029; S -0.18; D -0.063; N 0.073; E 0.051; L -0.065; A -0.259; I 0.097; W -0.105; G -0.146; M 0.11
Q5: F -0.063; T 0.013; P -0.726; R 0.013; L -0.029; V 0.04; D 0.021; I 0.014; H -0.108; G -0.036; K 0.016; E 0.128; A -0.007; C -0.006; Y -0.003; N -0.083; M 0.056
P10: M -0.678; H -0.398; F -1.13; S -0.367; Y -1.03; N -0.299; T -0.456; W -1.22; G -0.557; V -0.946; I -0.903; D -0.355; R -0.513; K -0.287; C -0.598; Q -0.391; A -0.468; L -0.922; E -0.364
V17: A -0.427; W -0.294; S -0.505; H -0.589; P -0.759; R -0.687; I -0.06; N -0.594; M -0.08; Y -0.428; D -0.479; K -0.679; C -0.272; G -0.599; Q -0.703; E -0.503
E6: N -0.146; G -0.358; L -0.187; T -0.014; S -0.185; P -0.809; Y -0.232; Q 0.024; W -0.082; H -0.086; A -0.12; R -0.145; M -0.078; V -0.028; I -0.101; D -0.1; C -0.366; F -0.217
G1: M 0.173; R -0.176; Q -0.26; S -0.14; C -0.127; N -0.073; F -0.027; D -0.067; A -0.075; E -0.061; V 0.038; Y -0.074; I 0.193; P -0.212; W -0.502; K -0.044; L -0.042
I7: P -1.14; Y -0.597; C -0.394; L -0.026; Q -0.559; T -0.564; F -0.229; D -1.02; A -0.674; W -0.651; R -0.861; G -0.885; E -0.646; N -1.09; V -0.045
